According to paper PMC6447619, “New type of interaction between the SARAH domain of the tumour suppressor RASSF1A and its mitotic kinase Aurora A” (Scientific Reports, 2019):

T1: Aurora A kinase domain (residues 107–403) (human) (UniProt O14965)
T1 sequence: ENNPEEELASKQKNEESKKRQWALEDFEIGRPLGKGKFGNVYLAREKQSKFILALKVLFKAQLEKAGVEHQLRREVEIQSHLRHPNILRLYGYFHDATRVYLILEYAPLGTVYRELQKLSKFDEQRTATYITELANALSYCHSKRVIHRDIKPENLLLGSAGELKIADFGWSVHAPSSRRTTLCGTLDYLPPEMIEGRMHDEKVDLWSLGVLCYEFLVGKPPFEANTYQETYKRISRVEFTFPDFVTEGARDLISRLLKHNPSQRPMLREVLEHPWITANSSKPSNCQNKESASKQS

T2: Aurora A kinase domain (residues 107–403) (human, UniProt O14965 107-403)
T2 construct: Aurora A kinase, human, kinase domain only, residues 107-403
T2 sequence (looked up): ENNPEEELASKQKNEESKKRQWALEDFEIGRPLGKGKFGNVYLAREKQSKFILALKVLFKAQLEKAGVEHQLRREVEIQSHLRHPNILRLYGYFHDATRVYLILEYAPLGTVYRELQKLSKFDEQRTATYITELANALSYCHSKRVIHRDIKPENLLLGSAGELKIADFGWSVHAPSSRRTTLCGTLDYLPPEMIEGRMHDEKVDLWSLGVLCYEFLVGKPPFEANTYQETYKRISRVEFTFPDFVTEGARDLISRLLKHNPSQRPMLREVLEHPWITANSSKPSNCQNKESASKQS


How the values were obtained:
[1] = molecular target: T1, Aurora A kinase domain (residues 107–403) (human)
[2] = molecular target: the molecule itself; assay: SEC; analytical gel filtration on Superose 6 10/300 GL, 100 μl of dilution series injected (RBD 1.5-17.5 μM, ∆N 4.5-35 μM, SARAH 1.5-80 μM), 25 mM HEPES pH 7.4, 300 mM NaCl; MBP-tagged constructs; dimer to monomers
[3] = molecular target: T2, Aurora A kinase domain (residues …); assay: SPR; Biacore X; Aurora A kinase domain immobilised on a CM5 chip, RASSF1A variants as analytes; HBS-EP (10 mM HEPES pH 7.4, 150 mM NaCl, 3 mM EDTA, 0.005% Tween-20), 25 °C; equilibria not reached because of irreversible aggregation on the surface; conditions: both partners purified

Binder	Km of phosphorylation of ∆N-∆loop by Aurora A kinase domain (40 nM), 32P incorporation [1]	stoichiometry N [2]	binding result [3]
RASSF1A ∆N-∆loop (residues 121–340 lacking the loop 177–197) (domain or fragment) EPVEWETPDLSQAEIEQKIKEYNAQINSNLFMSLNKDGSYTGFIKVQLKLVRPVSVVRRRTSFYLPKDAVKHLHVLSRTRAREVIEALLRKFLVVDDPRKFALFERAERHGQVYLRKLLDDEQPLRLRLLAGPSDKALSFVLKENDSGEVNWDAFSMPELHNFLRILQREEEEHLRQILQKYSYCRQKIQEALHACPLG	10 µM		
RASSF1A ∆N (residues 121–340) (domain or fragment, UniProt Q9NS23-2 121-340, looked up, Ras-association domain family 1 isoform A (RASSF1A), 340 residues, residues 121-340 (RBD plus SARAH domain); numbers count on: isoform A; 69 kDa with the MBP tag; Monomer-dimer equilibrium by SEC; also called ΔN; ΔN fragment; not shown: MBP, N-terminal, kept) EPVEWETPDLSQAEIEQKIKEYNAQINSNLFMSLNKDGSYTGFIKVQLKLVRPVSVPSSKKPPSLQDARRGPGRGTSVRRRTSFYLPKDAVKHLHVLSRTRAREVIEALLRKFLVVDDPRKFALFERAERHGQVYLRKLLDDEQPLRLRLLAGPSDKALSFVLKENDSGEVNWDAFSMPELHNFLRILQREEEEHLRQILQKYSYCRQKIQEALHACPLG		2	
VNWDAFSMPELHNFLRILQREEEEHLRQILQKYSYCRQKIQEALHACPLG (domain or fragment, UniProt Q9NS23-2 291-340, looked up, Ras-association domain family 1 isoform A (RASSF1A), residues 291-340 (SARAH domain); numbers count on: isoform A; 51 kDa with the MBP tag; Monomer-dimer equilibrium by SEC; also called isolated SARAH domain; SARAH domain construct; not shown: MBP, N-terminal, kept) [SARAH domain of RASSF1A (residues 291–340)]		2	binds
